Target: kinase substrate domain (MidT) fused to the omega subunit of RNA polymerase (RpoZ), no protease recognition site in the linker, P0A800
Sequence (P0A800 whole entry, looked up, the tested form may be a part): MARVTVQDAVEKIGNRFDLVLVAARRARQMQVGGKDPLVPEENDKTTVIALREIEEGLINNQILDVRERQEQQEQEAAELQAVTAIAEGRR

B1: Striatum-enriched protein-tyrosine phosphatase catalytic domain (STEP282-563) (protein)
chain: MSSGVDLGTENLYFQSMSRVLQAEELHEKALDPFLLQAEFFEIPMNFVDPKEYDIPGLVRKNRYKTILPNPHSRVCLTSPDPDDPLSSYINANYIRGYGGEEKVYIATQGPIVSTVADFWRMVWQEHTPIIVMITNIEEMNEKCTEYWPEEQVAYDGVEITVQKVIHTEDYRLRLISLKSGTEERGLKHYWFTSWPDQKTPDRAPPLLHLVREVEEAAQQEGPHCAPIIVHCSAGIGRTGCFIATSICCQQLRQEGVVDILKTTCQLRQDRGGMIQTCEQYQFVHHVMSLYEKQLSHQS
- spectinomycin resistance of E. coli with the PTP-specific B2H: did not yield functional two-hybrid systems, most likely due to low activity against the MidT substrate
